Data set [1] relates to NC(=O)c1ccc[n+]([C@@H]2O[C@H](COP(=O)(O)OP(=O)(O)OC[C@H]3O[C@@H](n4cnc5c(N)ncnc54)[C@H](O)[C@@H]3O)[C@@H](O)[C@H]2O)c1. The data set is described as follows: purified protein. The conditions noted are these: 2 mM G3P, 5 mM phosphate, 40 mM Tris-HCl pH 8.5, 2 mM EDTA, 25 °C.
For data set [2], the system named is O=C[C@H](O)COP(=O)(O)O. Description: purified protein. The conditions noted are these: 2 mM NAD+, 5 mM phosphate, 40 mM Tris-HCl pH 8.5, 2 mM EDTA, 25 °C, fit with substrate inhibition.

One may read the Km as the concentration of substrate that gives half-maximal velocity. For orientation: kcat means the maximal rate divided by the concentration of active sites. As usually defined, the kcat/Km is the turnover number divided by the Michaelis constant. Turning to “LiGAPDH (Leptospira interrogans serovar Copenhageni str. Fiocruz L1-130)”, in data set [1], the Km stood at 81 ± 6 µM, the kcat is 44.2 ± 0.9 s⁻¹ and the kcat/Km was found to be 543000 ± 44000 M⁻¹ s⁻¹. For the same substance, in data set [2], the Km was 600 ± 100 µM, the kcat stood at 70 ± 7 s⁻¹ and the kcat/Km was determined as 121000 ± 24000 M⁻¹ s⁻¹.

The values are drawn from paper PMC10318897, “The structure of Leptospira interrogans GAPDH sheds light into an immunoevasion factor that can target the anaphylatoxin C5a of innate immunity” (Frontiers in Immunology, 2023).
